# B1: M30 antibody (antibody, mouse IgG2a, kappa, V domains shown)
# VH: EVQLQQSGPELVKPGASVKMSCKASGYTFTNYVMHWVKQKPGQGLEWIGYINPYNDDVKYNEKFKGKATQTSDKSSSTAYMELSSLTSEDSAVYYCARWGYYGSPLYYFDYWGQGTTLTVSS
# VL: QIVLSQSPTILSASPGEKVTMTCRASSRLIYMHWYQQKPGSSPKPWIYATSNLASGVPARFSGSGSGTSYSLTISRVEAEDAATYYCQQWNSNPPTFGTGTKLELKR
# notes: Mouse monoclonal antibody produced by the B7-H3 hybridoma M30
# B2: Antibody-drug conjugate (6) (antibody, human IgG1, kappa, V domains shown)
# VH: QIQLQQSGPEVVKPGASVKISCKASGYTFTDYYITWVKQKPGQGLEWIGWIYPGSGNTKYNEKFKGKATLTVDTSSSTAFMQLSSLTSEDTAVYFCANYGNYWFAYWGQGTQVTVSA
# VL: DIVLTQSPASLAVSLGQRATISCKASQSVDFDGDSYMNWYQQKPGQPPKVLIYAASNLESGIPARFSGSGSGTDFTLNIHPVEEEDAATYYCQQSNQDPWTFGGGTKLEIKR
# modifications: drug-linker 6-maleimidohexanoyl-GGFG-NH-(CH2)3-C(=O)-exatecan (compound of Process 3 of Example 2) on cysteines of the reduced hinge disulfide bonds; average 3.3 per antibody molecule; positions not given
# B3: Antibody-drug conjugate (7) (antibody, V domains shown)
# VH: B2 VH
# VL: B2 VL
# modifications: drug-linker 6-maleimidohexanoyl-GGFG-NH-(CH2)3-C(=O)-exatecan (compound of Process 3 of Example 2) on cysteines of the reduced hinge disulfide bonds; average 3.8 per antibody molecule; positions not given
# B4: Antibody-drug conjugate (23) (antibody, V domains shown)
# VH: B2 VH
# VL: B2 VL
# modifications: drug-linker 3-maleimidopropanoyl-NH-(CH2CH2O)2-CH2CH2-C(=O)-GGFG-NH-(CH2)3-C(=O)-exatecan (compound of Process 1 of Example 14) on cysteines of the reduced hinge disulfide bonds; average 7.1 per antibody molecule; positions not given
# B5: Antibody-drug conjugate (38) (antibody, V domains shown)
# VH: B2 VH
# VL: B2 VL
# modifications: drug-linker from the N-succinimidyl ester of suberoyl-GGFG-NH-(CH2)3-C(=O)-exatecan (compound of Process 1 of Example 37); average 2.7 per antibody molecule; chain and positions not stated
# B6: Antibody-drug conjugate (64) (antibody, V domains shown)
# VH: B2 VH
# VL: B2 VL
# modifications: drug-linker 6-maleimidohexanoyl-GGFG-NH-CH2-O-CH2-C(=O)-exatecan (compound of Process 8 of Example 58) on cysteines of the reduced hinge disulfide bonds; average 3.7 per antibody molecule; positions not given
# B7: Antibody-drug conjugate (65) (antibody, V domains shown)
# VH: B2 VH
# VL: B2 VL
# modifications: drug-linker 6-maleimidohexanoyl-GGFG-NH-CH2-O-CH2-C(=O)-exatecan (compound of Process 8 of Example 58) on cysteines of the reduced hinge disulfide bonds; average 6.8 per antibody molecule; positions not given
# B8: Antibody-drug conjugate (22) (antibody, V domains shown)
# VH: B2 VH
# VL: B2 VL
# modifications: drug-linker 3-maleimidopropanoyl-NH-(CH2CH2O)2-CH2CH2-C(=O)-GGFG-NH-(CH2)3-C(=O)-exatecan (compound of Process 1 of Example 14) on cysteines of the reduced hinge disulfide bonds; average 2.5 per antibody molecule; positions not given
# B9: Antibody-drug conjugate (8) (antibody, V domains shown)
# VH: EVQLVQSGAEVKKPGSSVKVSCKASGYTITDSNIHWVRQAPGQSLEWIGYIYPYNGGTDYNQKFKNRATLTVDNPTNTAYMELSSLRSEDTAFYYCVNGNPWLAYWGQGTLVTVSS
# VL: DIQLTQSPSTLSASVGDRVTITCRASQSLDNYGIRFLTWFQQKPGKAPKLLMYAASNQGSGVPSRFSGSGSGTEFTLTISSLQPDDFATYYCQQTKEVPWSFGQGTKVEVKR
# modifications: drug-linker 6-maleimidohexanoyl-GGFG-NH-(CH2)3-C(=O)-exatecan (compound of Process 3 of Example 2) on cysteines of the reduced hinge disulfide bonds; average 3.4 per antibody molecule; positions not given
# B10: Antibody-drug conjugate (9) (antibody, V domains shown)
# VH: B9 VH
# VL: B9 VL
# modifications: drug-linker 6-maleimidohexanoyl-GGFG-NH-(CH2)3-C(=O)-exatecan (compound of Process 3 of Example 2) on cysteines of the reduced hinge disulfide bonds; average 3.7 per antibody molecule; positions not given
# B11: Antibody-drug conjugate (25) (antibody, V domains shown)
# VH: B9 VH
# VL: B9 VL
# modifications: drug-linker 3-maleimidopropanoyl-NH-(CH2CH2O)2-CH2CH2-C(=O)-GGFG-NH-(CH2)3-C(=O)-exatecan (compound of Process 1 of Example 14) on cysteines of the reduced hinge disulfide bonds; average 7.3 per antibody molecule; positions not given
# B12: Antibody-drug conjugate (5) (antibody, human IgG1, kappa, V domains shown)
# VH: QVQLVQSGAEVKKPGSSVKVSCKASGYTFTNYVMHWVRQAPGQGLEWMGYINPYNDDVKYNEKFKGRVTITADESTSTAYMELSSLRSEDTAVYYCARWGYYGSPLYYFDYWGQGTLVTVSS
# VL: EIVLTQSPATLSLSPGERATLSCRASSRLIYMHWYQQKPGQAPRPLIYATSNLASGIPARFSGSGSGTDFTLTISSLEPEDFAVYYCQQWNSNPPTFGQGTKVEIKR
# modifications: drug-linker 6-maleimidohexanoyl-GGFG-NH-(CH2)3-C(=O)-exatecan (compound of Process 3 of Example 2) on cysteines of the reduced hinge disulfide bonds; average 6.7 per antibody molecule; positions not given
# B13: Antibody-drug conjugate (16) (antibody, human IgG1, kappa, V domains shown)
# VH: B12 VH
# VL: B12 VL
# modifications: drug-linker 3-maleimidopropanoyl-NH-(CH2CH2O)2-CH2CH2-C(=O)-GGFG-NH-(CH2)3-C(=O)-exatecan (compound of Process 1 of Example 14) on cysteines of the reduced hinge disulfide bonds; average 6.5 per antibody molecule; positions not given
# B14: Antibody-drug conjugate (21) (antibody, human IgG1, kappa, V domains shown)
# VH: B12 VH
# VL: B12 VL
# modifications: drug-linker 3-maleimidopropanoyl-NH-(CH2CH2O)2-CH2CH2-C(=O)-GGFG-NH-(CH2)3-C(=O)-exatecan (compound of Process 1 of Example 14) on cysteines of the reduced hinge disulfide bonds; average 5.5 per antibody molecule; positions not given
# B15: Antibody-drug conjugate (32) (antibody, human IgG1, kappa, V domains shown)
# VH: B12 VH
# VL: B12 VL
# modifications: drug-linker from N-(bromoacetyl)-beta-alanyl-GGFG-NH-(CH2)3-C(=O)-exatecan (compound of Process 3 of Example 30) on cysteines of the reduced hinge disulfide bonds; average 6.0 per antibody molecule; positions not given
# B16: Antibody-drug conjugate (44) (antibody, human IgG1, kappa, V domains shown)
# VH: B12 VH
# VL: B12 VL
# modifications: drug-linker 6-maleimidohexanoyl-GGFG-NH-CH2CH2-O-CH2-C(=O)-exatecan (compound of Process 3 of Example 43) on cysteines of the reduced hinge disulfide bonds; average 6.6 per antibody molecule; positions not given
# B17: Antibody-drug conjugate (45) (antibody, human IgG1, kappa, V domains shown)
# VH: B12 VH
# VL: B12 VL
# modifications: drug-linker 6-maleimidohexanoyl-GGFG-NH-CH2CH2-O-CH2-C(=O)-exatecan (compound of Process 3 of Example 43) on cysteines of the reduced hinge disulfide bonds; average 3.7 per antibody molecule; positions not given
# B18: Antibody-drug conjugate (46) (antibody, human IgG1, kappa, V domains shown)
# VH: B12 VH
# VL: B12 VL
# modifications: drug-linker 6-maleimidohexanoyl-GGFG-NH-CH2CH2-O-CH2-C(=O)-exatecan (compound of Process 3 of Example 43) on cysteines of the reduced hinge disulfide bonds; average 5.2 per antibody molecule; positions not given
# B19: Antibody-drug conjugate (52) (antibody, human IgG1, kappa, V domains shown)
# VH: B12 VH
# VL: B12 VL
# modifications: drug-linker 6-maleimidohexanoyl-GGFG-NH-(CH2)5-C(=O)-exatecan (compound of Process 5 of Example 54) on cysteines of the reduced hinge disulfide bonds; average 3.1 per antibody molecule; positions not given
# B20: Antibody-drug conjugate (54) (antibody, human IgG1, kappa, V domains shown)
# VH: B12 VH
# VL: B12 VL
# modifications: drug-linker 6-maleimidohexanoyl-GGFG-NH-(CH2)5-C(=O)-exatecan (compound of Process 5 of Example 54) on cysteines of the reduced hinge disulfide bonds; average 3.0 per antibody molecule; positions not given
# B21: Antibody-drug conjugate (10) (antibody, V domains shown)
# VH: QVQLVQSGAEVKKPGASVKVSCKASGYTFTNYGMNWVRQAPGQGLKWMGWINTYTGEPTYADAFKGRVTMTRDTSISTAYMELSRLRSDDTAVYYCARDYGDYGMDYWGQGTTVTVSS
# VL: DIVMTQSPDSLAVSLGERATINCRASKSVSTSGYSFMHWYQQKPGQPPKLLIYLASNLESGVPDRFSGSGSGTDFTLTISSLQAEDVAVYYCQHSREVPWTFGQGTKVEIKR
# modifications: drug-linker 6-maleimidohexanoyl-GGFG-NH-(CH2)3-C(=O)-exatecan (compound of Process 3 of Example 2) on cysteines of the reduced hinge disulfide bonds; average 3.2 per antibody molecule; positions not given
# B22: Antibody-drug conjugate (11) (antibody, V domains shown)
# VH: B21 VH
# VL: B21 VL
# modifications: drug-linker 6-maleimidohexanoyl-GGFG-NH-(CH2)3-C(=O)-exatecan (compound of Process 3 of Example 2) on cysteines of the reduced hinge disulfide bonds; average 3.6 per antibody molecule; positions not given
# Molecular target: T1, human B7-H3 variant 1 (human, UniProt Q5ZPR3 27-534)
# T1 construct: also called 4Ig-B7-H3
# T1 sequence: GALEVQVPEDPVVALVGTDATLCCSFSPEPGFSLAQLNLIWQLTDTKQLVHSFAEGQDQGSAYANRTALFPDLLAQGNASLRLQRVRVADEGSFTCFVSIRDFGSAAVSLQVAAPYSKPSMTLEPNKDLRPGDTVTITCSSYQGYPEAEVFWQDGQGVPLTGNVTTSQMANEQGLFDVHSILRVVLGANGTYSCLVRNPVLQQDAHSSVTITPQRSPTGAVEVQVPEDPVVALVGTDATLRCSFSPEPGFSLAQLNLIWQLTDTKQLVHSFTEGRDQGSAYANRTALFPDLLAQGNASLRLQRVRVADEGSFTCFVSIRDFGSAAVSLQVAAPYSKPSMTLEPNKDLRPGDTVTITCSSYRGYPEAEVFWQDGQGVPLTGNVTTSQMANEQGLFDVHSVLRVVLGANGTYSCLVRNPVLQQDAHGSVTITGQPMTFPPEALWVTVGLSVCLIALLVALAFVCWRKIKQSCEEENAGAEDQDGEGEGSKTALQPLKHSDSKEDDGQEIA
# Experiment: flow cytometry: 10 µg/mL M30 on CCRF-CEM clones transfected with pcDNA3.1-B7-H3, detected with fluorescein-conjugated goat anti-mouse IgG
# Description: Flow cytometry was used for confirming B7-H3 expression in each recovered clone. Specifically, each recovered clone was washed twice with PBS containing 5% FBS, thereafter suspended by the addition of PBS containing 5% FBS and 10 μg/mL M30, and left standing at 4° C. for 30 minutes. The clone was washed twice with PBS containing 5% FBS, thereafter suspended by the addition of Fluorescein-conjugated goat IgG fraction to mouse IgG (Whole Molecule) (455493, manufactured by ICN Pharmaceuticals, Inc.) diluted 1000-fold with PBS containing 5% FBS, and left standing at 4° C. for 30 minutes. The clone was washed twice with PBS containing 5% FBS, thereafter resuspended in PBS containing 5% FBS, and detected by using a flow cytometer (FC500: Beckman Coulter, Inc.).
row,Binder,binding result
1,B1,binds

# Molecular target: T2, CD30 (UniProt P28908 19-595, limits assumed)
# T2 sequence (looked up): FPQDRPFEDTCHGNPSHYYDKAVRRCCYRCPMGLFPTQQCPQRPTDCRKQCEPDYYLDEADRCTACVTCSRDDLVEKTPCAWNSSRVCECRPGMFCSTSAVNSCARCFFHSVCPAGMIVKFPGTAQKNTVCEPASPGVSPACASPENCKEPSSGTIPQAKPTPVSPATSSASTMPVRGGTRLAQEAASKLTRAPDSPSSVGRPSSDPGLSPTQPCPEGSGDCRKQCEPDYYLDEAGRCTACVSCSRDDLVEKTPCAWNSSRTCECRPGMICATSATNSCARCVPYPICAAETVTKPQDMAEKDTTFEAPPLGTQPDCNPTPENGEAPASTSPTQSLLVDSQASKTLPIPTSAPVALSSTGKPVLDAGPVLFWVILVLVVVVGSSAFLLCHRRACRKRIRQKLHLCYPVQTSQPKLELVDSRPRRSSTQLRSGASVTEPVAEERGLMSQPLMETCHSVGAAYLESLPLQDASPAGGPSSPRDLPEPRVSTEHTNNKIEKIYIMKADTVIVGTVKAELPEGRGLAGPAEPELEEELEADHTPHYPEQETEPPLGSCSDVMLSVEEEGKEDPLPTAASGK
# Experiment: cell-based or functional assay
row,Binder,"IC50, cytotoxic activity against the SR cells [nM]"
1,B2,< 0.01
2,B3,< 0.01
3,B4,< 0.01
4,B5,< 0.01
5,B6,< 0.01
6,B7,< 0.01
7,B8,< 0.1

# Molecular target: CD33 (UniProt P20138 18-364, limits assumed)
# Sequence (P20138 18-364 limits assumed): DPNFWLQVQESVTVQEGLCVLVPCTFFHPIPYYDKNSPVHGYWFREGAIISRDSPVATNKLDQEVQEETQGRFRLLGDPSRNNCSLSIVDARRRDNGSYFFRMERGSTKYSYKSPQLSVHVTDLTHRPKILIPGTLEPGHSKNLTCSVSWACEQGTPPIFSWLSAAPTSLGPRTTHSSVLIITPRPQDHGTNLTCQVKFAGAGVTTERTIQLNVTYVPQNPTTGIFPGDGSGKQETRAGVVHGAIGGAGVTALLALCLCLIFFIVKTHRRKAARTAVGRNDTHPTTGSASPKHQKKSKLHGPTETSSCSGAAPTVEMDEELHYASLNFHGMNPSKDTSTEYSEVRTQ
# Experiment: cell-based or functional assay
Binder,"IC50, cytotoxic activity against the HL-60 cells [nM]","IC50, cytotoxic activity against the NOMO-1 cells [nM]"
B9,< 0.1,
B10,< 0.1,
B11,,< 0.1

# Molecular target: T1, human B7-H3 variant 1
# Experiment: cell-based or functional assay
row,Binder,"IC50, cytotoxic activity against the CEM_V1-3.1-2 cells [nM]"
1,B12,< 0.1
2,B13,< 0.1
3,B14,< 0.1
4,B15,< 0.1
5,B16,< 0.1
6,B17,< 0.1
7,B18,< 0.1
8,B19,< 0.1
9,B20,< 0.1

# Molecular target: T3, CD70 (UniProt P32970 1-193, limits assumed)
# T3 sequence (looked up): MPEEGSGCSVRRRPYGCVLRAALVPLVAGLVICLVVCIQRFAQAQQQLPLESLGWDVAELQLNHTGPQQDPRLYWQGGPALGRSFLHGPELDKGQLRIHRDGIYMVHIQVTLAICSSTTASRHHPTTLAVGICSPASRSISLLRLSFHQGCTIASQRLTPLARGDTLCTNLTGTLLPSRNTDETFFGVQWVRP
# Experiment: cell-based or functional assay
row,Binder,"IC50, cytotoxic activity against the U251 cells [nM]"
1,B21,< 1
2,B22,< 1

# Source: US20150297748A1 (Daiichi Sankyo, published 2015)
